Target: C9-tagged CCR5 (human) (UniProt P51681)
Assay: SPR

Chain of UniProt P51681 (P51681 whole entry): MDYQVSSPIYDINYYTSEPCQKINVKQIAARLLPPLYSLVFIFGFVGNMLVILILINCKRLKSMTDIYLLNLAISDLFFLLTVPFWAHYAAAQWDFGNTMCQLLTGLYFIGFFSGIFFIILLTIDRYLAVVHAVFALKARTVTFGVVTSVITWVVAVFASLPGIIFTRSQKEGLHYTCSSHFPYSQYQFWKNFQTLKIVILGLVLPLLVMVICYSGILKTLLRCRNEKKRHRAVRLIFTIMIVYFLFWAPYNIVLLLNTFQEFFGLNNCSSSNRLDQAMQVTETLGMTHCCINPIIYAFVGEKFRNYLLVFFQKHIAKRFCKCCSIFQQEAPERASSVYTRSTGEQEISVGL

LukE (leukotoxin ED subunit E), His-tagged (natural protein)
Kd: 39.6 nM
